Columns and labels:
Experiment in all cases: cell-based or functional assay
[1] = molecular target: gp120 of clade A HIV strains
[2] = molecular target: amyloid β peptide Aβ1-40 (UniProt P05067)
[3] = molecular target: Efb (S. aureus virulence factor) (Staphylococcus aureus) (UniProt A6QG59)
Chain of Efb (S. aureus virulence factor) (Staphylococcus aureus) (A6QG59 30-165 limits assumed): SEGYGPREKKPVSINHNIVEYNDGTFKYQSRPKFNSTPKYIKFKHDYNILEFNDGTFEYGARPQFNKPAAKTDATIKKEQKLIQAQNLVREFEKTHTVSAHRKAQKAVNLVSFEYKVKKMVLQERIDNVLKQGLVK

Row | Binder | HIV neutralization IC50 [1] | 125I-Aβ1-40 hydrolyzing activity, specific activity, preparation AEQ (fmol/h/mg protein) [2] | 125I-Aβ1-40 hydrolyzing activity, specific activity, preparation MA1 (fmol/h/mg protein) [2] | 125I-Aβ1-40 hydrolyzing activity, specific activity, preparation MA2 (fmol/h/mg protein) [2] | 125I-Aβ40 hydrolysis, activity in the absence of a competitor peptide [2] | Km [2] | kcat [2] | kcat/Km [2] | % Bt-Efb cleavage [3]
1 | scFv JL427 (scFv) scFv: QSVLTQPPSVSGAPGQRVTISCSGSSSNFGLNYVYWYQHFPGTAPKLLIYRNDQRPLGVPARFSGSKSGTSASLAISGLRSEDEADYYCQSYDNSLSGWVFGGGTQLTVLGSSGGGGSGGGGSGGSALQVQLQQSGGGLVQPGRSLRLSCAASGFTFSSYGMHWVRQAPGKGLEWVSYIGRSGSHTNYADSVKGRFTISRDNSKNTLYLQINSLRAEDTAVYYCARGLPNYGMDIWGQGTTVTVSSGSASAPTLFPAAAHHHHHHGAAEQKLISEEDLNGAA | 0.2 µg/mL | – | – | – | – | – | – | – | –
2 | IgVL2-t 2E6 (protein) QSALTQPASVSGSPGQSITISCTGTSSDVGGYNYVSWYQQHPGKAPKLMISEVSNRPSGVSNRFSGSKSGNTASLTISGPQTEDEADYYCSSYTSSSTPVVFGGGTQLTVLGSSGGGGSGGGGSGGSALDIQLTQSPSSLPASVGDRVTITCRASQSISSYLNWYQQKPGKAPKLLIYAASSLQSGVPSRFSGSGSGTDFTLTISSLQPEDFATYYCQQSYSTHTFGQGTKLEIKRAAAHHHHHHGAAEQKLISEEDLNGAA | – | 1160 | 380 | 368 | 2590 cpm/hour | 80 µM | 0.005 s⁻¹ | 61.7 M⁻¹ s⁻¹ | > 20%

— US20100183614A1
